Like-named read-outs stand apart in the source and are kept apart here.
Experiments:
[1] = molecular target: HLA-DR (human leukocyte antigen-DR) on human lymphoma and leukemia cells and human lymphocytes (human); assay: indirect flow cytometry, Namalwa cells, FITC-GAM 2nd Ab; none 2.91; control antibody (anti-CEA)
[2] = molecular target: CD74 on human cells (human) (UniProt P04233); assay: K562 (CML) cells; no mAb 3.2
[3] = molecular target: CD74 on dog lymphocytes and dog lymphoma cells (dog); assay: flow cytometry, dog lymphoma aspirate; none 3.85
[4] = molecular target: CD74 on human cells (human) (UniProt P04233); assay: Kasumi-1 (AML) cells; no mAb 18.2
[5] = molecular target: CD74 on human cells (human) (UniProt P04233); assay: RS4;11 (ALL) cells; no mAb 6.4
[6] = molecular target: CD74 on human cells (human) (UniProt P04233); assay: indirect flow cytometry, Namalwa cells, FITC-GAM 2nd Ab; none 2.91
[7] = molecular target: CD74 on human cells (human) (UniProt P04233); assay: Kasumi-3 (AML) cells; no mAb 9.6
[8] = molecular target: CD74 on human cells (human) (UniProt P04233); assay: Jeko-1 (MCL) cells; no mAb 14.3
[9] = molecular target: CD74 on human cells (human) (UniProt P04233); assay: GDM-1 (AML) cells; no mAb 16.8
[10] = molecular target: CD74 on human cells (human) (UniProt P04233); assay: Granta-519 (MCL) cells; no mAb 15.3
[11] = molecular target: CD74 on human cells (human) (UniProt P04233); assay: REH (ALL) cells; no mAb 3.9
[12] = molecular target: CD74 on human cells (human) (UniProt P04233); assay: MEC-1 (CLL) cells; no mAb 4.7
[13] = molecular target: CD74 on human cells (human) (UniProt P04233); assay: MN60 (ALL) cells; no mAb 8.1
[14] = molecular target: CD74 on dog lymphocytes and dog lymphoma cells (dog); assay: flow cytometry, canine lymphoma aspirate 150836; none 3.9
[15] = molecular target: CD74 on human cells (human) (UniProt P04233); assay: WAC (CLL) cells; no mAb 15.8
[16] = molecular target: CD74 on dog lymphocytes and dog lymphoma cells (dog); assay: flow cytometry, canine lymphoma aspirate 150836; none 3.4
[17] = molecular target: CD74 on dog lymphocytes and dog lymphoma cells (dog); assay: flow cytometry, dog lymphoma aspirate; none 3.37
[18] = molecular target: CD74 on human cells (human) (UniProt P04233); assay: HC-1 (hairy cell leukemia) cells; no mAb 4.8
[19] = molecular target: CD74 on human cells (human) (UniProt P04233); assay: 697 (ALL) cells; no mAb 4.9
[20] = molecular target: T1, CD20 on human cells (human) (UniProt P11836); assay: indirect FACS, Ramos cells, FITC-GAH Fc 2nd Ab; none 3.1
T1 sequence (looked up): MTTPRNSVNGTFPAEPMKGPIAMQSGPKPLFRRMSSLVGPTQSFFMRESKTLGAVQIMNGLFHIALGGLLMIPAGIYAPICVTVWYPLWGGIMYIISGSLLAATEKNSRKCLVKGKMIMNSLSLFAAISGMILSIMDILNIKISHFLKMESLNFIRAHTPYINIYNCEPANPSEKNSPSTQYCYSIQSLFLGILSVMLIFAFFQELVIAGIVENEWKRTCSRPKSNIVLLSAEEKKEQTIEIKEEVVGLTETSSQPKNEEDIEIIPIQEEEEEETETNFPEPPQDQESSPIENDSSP

[21] = molecular target: T1, CD20 on human cells (human); assay: indirect FACS, Namalwa cells, FITC-GAH Fc 2nd Ab; none 2.5
[22] = molecular target: T2, CD20 on dog lymphocytes and dog lymphoma cells (dog) (UniProt Q3C2E2); assay: flow cytometry, canine lymphoma aspirate 150836; none 4.5
T2 sequence (looked up): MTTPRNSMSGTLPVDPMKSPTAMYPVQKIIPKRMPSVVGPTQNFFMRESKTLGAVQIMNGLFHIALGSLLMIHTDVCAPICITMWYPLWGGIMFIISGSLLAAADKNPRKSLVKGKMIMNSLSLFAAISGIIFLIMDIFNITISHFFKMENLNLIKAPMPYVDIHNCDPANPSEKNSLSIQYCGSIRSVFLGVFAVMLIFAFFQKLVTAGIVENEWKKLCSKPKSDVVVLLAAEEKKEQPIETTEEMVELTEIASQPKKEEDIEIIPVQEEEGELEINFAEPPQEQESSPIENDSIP

[23] = molecular target: T2, CD20 on dog lymphocytes and dog lymphoma cells (dog); assay: flow cytometry, dog lymphoma aspirate; none 3.24
[24] = molecular target: T1, CD20 on human cells (human); assay: indirect flow cytometry, Daudi cells, FITC-GAH Fc 2nd Ab; none 3.2
[25] = molecular target: T1, CD20 on human cells (human); assay: indirect flow cytometry, Raji cells, FITC-GAH Fc 2nd Ab; none 6.9
[26] = molecular target: T1, CD20 on human cells (human); assay: indirect flow cytometry, Namalwa cells, FITC-GAH 2nd Ab; none 2.52
[27] = molecular target: T1, CD20 on human cells (human); assay: indirect flow cytometry, Namalwa cells, FITC-GAH Fc 2nd Ab; none 2.6
[28] = molecular target: T1, CD20 on human cells (human); assay: indirect flow cytometry, RL cells, FITC-GAH Fc 2nd Ab; none 2.4
[29] = molecular target: T1, CD20 on human cells (human); assay: indirect FACS, Raji cells, FITC-GAH Fc 2nd Ab; none 6.8
[30] = molecular target: T1, CD20 on human cells (human); assay: indirect flow cytometry, Ramos cells, FITC-GAH Fc 2nd Ab; none 3.1
[31] = molecular target: T1, CD20 on human cells (human); assay: indirect flow cytometry, WSU-FSCCL cells, FITC-GAH Fc 2nd Ab; none 2.7
[32] = molecular target: T2, CD20 on dog lymphocytes and dog lymphoma cells (dog); assay: flow cytometry, canine lymphoma aspirate 150836; none 3.2
[33] = molecular target: T1, CD20 on human cells (human); assay: indirect flow cytometry, SU-DHL-6 cells, FITC-GAH Fc 2nd Ab; none 4.6
[34] = molecular target: human serum complement; assay: cell-based or functional assay
[35] = molecular target: T1, CD20 on human cells (human); assay: indirect FACS, Daudi cells, FITC-GAH Fc 2nd Ab; none 3.1
[36] = molecular target: T2, CD20 on dog lymphocytes and dog lymphoma cells (dog); assay: flow cytometry, dog lymphoma aspirate; none 4.48
[37] = molecular target: T1, CD20 on human cells (human); assay: indirect FACS, WSU-FSCCL cells, FITC-GAH Fc 2nd Ab; none 2.6
[38] = molecular target: T1, CD20 on human cells (human); assay: indirect FACS, SU-DHL-6 cells, FITC-GAH Fc 2nd Ab; none 4.6
[39] = molecular target: human serum complement; assay: cell-based or functional assay; remark: listed apart in the source

CD74 on human cells (human), sequence (P04233 whole entry): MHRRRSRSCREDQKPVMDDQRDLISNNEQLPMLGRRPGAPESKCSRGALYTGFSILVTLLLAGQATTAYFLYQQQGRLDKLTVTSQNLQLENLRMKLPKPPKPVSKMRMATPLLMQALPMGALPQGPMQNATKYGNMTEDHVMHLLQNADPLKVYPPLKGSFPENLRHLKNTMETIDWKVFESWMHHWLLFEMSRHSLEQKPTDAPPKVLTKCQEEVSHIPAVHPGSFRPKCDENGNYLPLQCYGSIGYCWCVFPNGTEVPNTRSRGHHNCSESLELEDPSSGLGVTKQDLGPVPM

B1: MN-14 (murine anti-carcinoembryonic antigen mAb) (antibody, from a related filing, V domains shown)
VH: EVKLLESGGGLVQSGGSLKLSCAASGFDFTTYWMSWVRQAPGKGLEWIGEIHPDSSTINYAPSLKDKFIVSRDNAKNTLYLQMSKVRSEDTALYYCASLYFGFPWFAYWGQGTPVTVSA
VL: EIQLTQSHKMMSTSVGDRVSITCKASQDVGTSVAWYQQRPGQSPKLLIYWTSTRHTGVPDRFTGSVSGTDFTLTITNVQSEDLADYFCQQYSLYRSFGGGTKLEIK
Q: How did the geometric mean fluorescence [1] turn out when B1 was run?
A: 3.32

B2: LL1 (murine anti-human CD74 mAb) (antibody, from a related filing, V domains shown)
VH: QIQLVQSGPELKKPGETVKVTCKTSGYTFTNYGVNWIKQTPGEGLQWMGWINPNTGEPTFDDDFKGRFAFSLESSASTAFLQISNLKNEDMGTYFCSRSRGKNEAWFAYWGQGTLVTVSE
VL: DVVMTQTPLSLPVSLGDQASISCRSSQSLVHRNGNTYLHWYLQKPGQSPKLLIYTVSNRFSGVPDRFSGSGSGTDFTLKISRVEAEDLGLYFCSQSSHVPPTFGAGTKLEI
Q: What does the source list for B2?
A: mean FL [2]: 7; % Positive [3]: 6.69%; mean FL [4]: 23.8; mean FL [5]: 24.3; geometric mean fluorescence [6]: 17.3; mean FL [7]: 18.4; mean FL [8]: 32.7; mean FL [9]: 69.5; mean FL [10]: 50.8; mean FL [11]: 61.1; mean FL [12]: 44.7; mean FL [13]: 25.9; % Positive [14]: 6.7%; mean FL [15]: 43.6; mean FL [16]: 4; mean FL [17]: 4.01; mean FL [18]: 36.7; mean FL [19]: 20.6

B3: hA20 (veltuzumab, humanized anti-CD20 IgG1) (antibody, INN chains, looked up, V domains shown, part only)
VH: QVQLQQSGAEVKKPGSSVKVSCKASGYTFTSYNMHWVKQAPGQGLEWIGAIYPGMGDTSYNQKFKGKATLTADESTNTAYMELSSLRSEDTAFYYCARSTYYGGDWYFDVWGQGTTVTVSS
VL: DIQLTQSPSSLSASVGDRVTMTCRASSSVSYIHWFQQKPGKAPKPWIYATSNLASGVPVRFSGSGSGTDYTFTISSLQPEDIATYYCQQWTSNPPTFGGGTKLEIKR
Q: How did the geometric mean fluorescence [20] turn out when B3 was run?
A: 204

Q: What about the geometric mean fluorescence [21] of the same binder?
A: 10.1

Q: And the % Positive [22]?
A: 4%

Q: And the mean FL [23]?
A: 3.25

Q: What about the geometric mean fluorescence [24] of the same binder?
A: 241

Q: And the geometric mean fluorescence [25]?
A: 267

Q: And the geometric mean fluorescence [26]?
A: 6.28

Q: What about the geometric mean fluorescence [27] of the same binder?
A: 10.1

Q: What about the geometric mean fluorescence [28] of the same binder?
A: 128

Q: What about the geometric mean fluorescence [29] of the same binder?
A: 267

Q: And the geometric mean fluorescence [30]?
A: 204

Q: And the geometric mean fluorescence [31]?
A: 8.9

Q: What about the mean FL [32] of the same binder?
A: 3.3

Q: And the geometric mean fluorescence [33]?
A: 1200

Q: And the complement-mediated cytotoxic effect on Daudi cells (CDC, resazurin viability), EC50 [34]?
A: 0.66 nM

Q: What about the geometric mean fluorescence [35] of the same binder?
A: 241

Q: What about the % Positive [36] of the same binder?
A: 3.96%

Q: What about the geometric mean fluorescence [37] of the same binder?
A: 8.91

Q: And the geometric mean fluorescence [38]?
A: 1200

B4: hL243 (humanized L243 anti-HLA-DR antibody, IgG1/K isotype) (antibody, V domains shown)
VH: QVQLQQSGSELKKPGASVKVSCKASGFTFTNYGMNWVKQAPGQGLKWMGWINTYTREPTYADDFKGRFAFSLDTSVSTAYLQISSLKADDTAVYFCARDITAVVPTGFDYWGQGSLVTVSS
VL: DIQLTQSPSSLSASVGDRVTITCRASENIYSNLAWYRQKPGKAPKLLVFAASNLADGVPSRFSGSGSGTDYTFTISSLQPEDIATYYCQHFWTTPWAFGGGTKLQIKR
Q: B4 was tested. Which complement-mediated cytotoxic effect on Daudi cells (CDC, resazurin viability), EC50 [39] did it give?
A: 2.6 nM

Source: US20160355591A1
